Reference: patent publication US20220293215A1 (BROAD INSTITUTE, published 2022)

T1: I-A^b (MHCII) of murine bone marrow-derived dendritic cells from C57BL/6J mice (mouse, UniProt P14434 24-256; P14483 28-265)
T1 construct: whole, on cells; also called H2-IA
T1 sequence (MHC II alpha, looked up): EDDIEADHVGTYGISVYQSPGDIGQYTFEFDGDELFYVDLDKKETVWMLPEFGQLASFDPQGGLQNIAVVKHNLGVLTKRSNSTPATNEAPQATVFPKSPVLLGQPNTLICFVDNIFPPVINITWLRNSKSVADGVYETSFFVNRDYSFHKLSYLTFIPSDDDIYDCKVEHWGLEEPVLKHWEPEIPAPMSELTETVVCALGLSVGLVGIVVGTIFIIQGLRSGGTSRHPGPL
T1 sequence (MHC II beta, looked up): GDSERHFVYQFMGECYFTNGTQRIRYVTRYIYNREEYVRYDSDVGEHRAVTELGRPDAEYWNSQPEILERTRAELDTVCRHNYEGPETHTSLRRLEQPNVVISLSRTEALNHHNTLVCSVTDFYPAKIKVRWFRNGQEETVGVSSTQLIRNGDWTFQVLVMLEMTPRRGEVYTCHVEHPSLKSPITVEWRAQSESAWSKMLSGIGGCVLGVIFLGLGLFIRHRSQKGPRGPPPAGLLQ

B1: Listeria peptide STVVVEAGDTLWGIAQSKGTT (lmo0582 (lap)) (peptide)
peptide: STVVVEAGDTLWGIAQSKGTT
notes: also called lmo0582a_26-46
B2: Listeria peptide VDDTTVKFTLPTVAPAFENT (lmo0135) (peptide)
peptide: VDDTTVKFTLPTVAPAFENT
notes: also called lmo0135_150-169
B3: Listeria peptide GTKEKVVATPVSNVST (lmo0186) (peptide)
peptide: GTKEKVVATPVSNVST
B4: Listeria peptide IAVTAFAAPTIASA (lmo0582 (lap)) (peptide)
peptide: IAVTAFAAPTIASA
notes: also called lmo0582b_12-25
B5: Listeria peptide AVDDTTVKFTLPTVAPAFENT (lmo0135) (peptide)
peptide: AVDDTTVKFTLPTVAPAFENT
B6: Listeria peptide KEKVVATPVSNVSTSS (lmo0186) (peptide)
peptide: KEKVVATPVSNVSTSS
B7: Listeria peptide ADFRYVFDTAKATAASSYPG (lmo2185) (peptide)
peptide: ADFRYVFDTAKATAASSYPG
notes: also called lmo2185_293-312
B8: Listeria peptide DDTTVKFTLPTVAPAFEN (lmo0135) (peptide)
peptide: DDTTVKFTLPTVAPAFEN
B9: Listeria peptide DGLTWHDGKPLTADDV (lmo0135) (peptide)
peptide: DGLTWHDGKPLTADDV
B10: Listeria peptide VETKADIDALSLLSDKIFVTNQT (lmo1451 (ispH)) (peptide)
peptide: VETKADIDALSLLSDKIFVTNQT
B11: Listeria peptide DDTTVKFTLPTVAPAFE (lmo0135) (peptide)
peptide: DDTTVKFTLPTVAPAFE
B12: Listeria peptide TTVKFTLPTVAPAFENT (lmo0135) (peptide)
peptide: TTVKFTLPTVAPAFENT
B13: Listeria peptide YVFDTAKATAASSYPGSDETPP (lmo2185) (peptide)
peptide: YVFDTAKATAASSYPGSDETPP
B14: Listeria peptide DFRYVFDTAKATAASSYPGSDETPP (lmo2185) (peptide)
peptide: DFRYVFDTAKATAASSYPGSDETPP
B15: Listeria peptide GINQAYTGSTALSDG (lmo2360) (peptide)
peptide: GINQAYTGSTALSDG
B16: Listeria peptide GTKEKVVATPVSNVSTSSA (lmo0186) (peptide)
peptide: GTKEKVVATPVSNVSTSSA
notes: also called lmo0186_285-303
B17: Listeria peptide VDDTTVKFTLPTVAPAFE (lmo0135) (peptide)
peptide: VDDTTVKFTLPTVAPAFE
B18: Listeria peptide RYVFDTAKATAASSYPGSDETPPVVNPGETNPP (lmo2185) (peptide)
peptide: RYVFDTAKATAASSYPGSDETPPVVNPGETNPP
B19: Listeria peptide GGINQAYTGSTALSDGLN (lmo2360) (peptide)
peptide: GGINQAYTGSTALSDGLN
notes: also called lmo2360_289-306
B20: Listeria peptide GGINQAYTGSTALSDG (lmo2360) (peptide)
peptide: GGINQAYTGSTALSDG
B21: Listeria peptide AVDDTTVKFTLPTVAPAFENTIK (lmo0135) (peptide)
peptide: AVDDTTVKFTLPTVAPAFENTIK
B22: Listeria peptide DDTTVKFTLPTVAPAFENT (lmo0135) (peptide)
peptide: DDTTVKFTLPTVAPAFENT
B23: Listeria peptide RYVFDTAKATAASSYPGSDETPP (lmo2185) (peptide)
peptide: RYVFDTAKATAASSYPGSDETPP
B24: Listeria peptide YPGSDETPPVVNPGETN (lmo2185) (peptide)
peptide: YPGSDETPPVVNPGETN
B25: Listeria peptide SSYPGSDETPPVVNPGETNPP (lmo2185) (peptide)
peptide: SSYPGSDETPPVVNPGETNPP
B26: Listeria peptide ADFRYVFDTAKATAASSYPGSDETPP (lmo2185) (peptide)
peptide: ADFRYVFDTAKATAASSYPGSDETPP
B27: Listeria peptide TKEKVVATPVSNVSTSS (lmo0186) (peptide)
peptide: TKEKVVATPVSNVSTSS
B28: Listeria peptide EAKELVDNAPKALKEGIA (lmo0251 (rplL)) (peptide)
peptide: EAKELVDNAPKALKEGIA
B29: Listeria peptide APGQETQHYYGLPVADSAIDR (lmo2558 (ami)) (peptide)
peptide: APGQETQHYYGLPVADSAIDR
notes: also called lmo2558_533-553
B30: Listeria peptide YPGSDETPPVVNPGE (lmo2185) (peptide)
peptide: YPGSDETPPVVNPGE

Target: T1, I-A^b (MHCII) of murine bone …
Assay: MHCII peptidomics: Y3P IP of peptide-MHCII from BMDCs exposed to live Listeria, iTRAQ LC-MS/MS

| Binder | logFC |
| --- | --- |
| B1 | 0.489 log2 fold change, Listeria 6 hr versus 10 min |
| B2 | 0.844 log2 fold change, Listeria 6 hr versus 10 min |
| B3 | 0.0371 log2 fold change, Listeria 6 hr versus 10 min |
| B4 | 0.181 log2 fold change, Listeria 6 hr versus 10 min |
| B5 | 0.871 log2 fold change, Listeria 6 hr versus 10 min |
| B6 | -0.21 log2 fold change, Listeria 6 hr versus 10 min |
| B7 | 1.57 log2 fold change, Listeria 6 hr versus 10 min |
| B8 | 0.26 log2 fold change, Listeria 6 hr versus 10 min |
| B9 | 1.02 log2 fold change, Listeria 6 hr versus 10 min |
| B10 | 1.06 log2 fold change, Listeria 6 hr versus 10 min |
| B11 | 0.387 log2 fold change, Listeria 6 hr versus 10 min |
| B12 | 0.0598 log2 fold change, Listeria 6 hr versus 10 min |
| B13 | 0.611 log2 fold change, Listeria 6 hr versus 10 min |
| B14 | 0.678 log2 fold change, Listeria 6 hr versus 10 min |
| B15 | 0.261 log2 fold change, Listeria 6 hr versus 10 min |
| B16 | 0.489 log2 fold change, Listeria 6 hr versus 10 min |
| B17 | 0.455 log2 fold change, Listeria 6 hr versus 10 min |
| B18 | 0.634 log2 fold change, Listeria 6 hr versus 10 min |
| B19 | 0.555 log2 fold change, Listeria 6 hr versus 10 min |
| B20 | 0.239 log2 fold change, Listeria 6 hr versus 10 min |
| B21 | 0.464 log2 fold change, Listeria 6 hr versus 10 min |
| B22 | 0.786 log2 fold change, Listeria 6 hr versus 10 min |
| B23 | 0.271 log2 fold change, Listeria 6 hr versus 10 min |
| B24 | 1.86 log2 fold change, Listeria 6 hr versus 10 min |
| B25 | 0.292 log2 fold change, Listeria 6 hr versus 10 min |
| B26 | 1.56 log2 fold change, Listeria 6 hr versus 10 min |
| B27 | -0.286 log2 fold change, Listeria 6 hr versus 10 min |
| B28 | 0.93 log2 fold change, Listeria 6 hr versus 10 min |
| B29 | 0.856 log2 fold change, Listeria 6 hr versus 10 min |
| B30 | 0.785 log2 fold change, Listeria 6 hr versus 10 min |
